According to paper PMC5727187, “Insights into the structure and assembly of a bacterial cellulose secretion system” (Nature Communications, 2017):

Experiments:
[1] = molecular target: the molecule itself; test: negative-stain electron microscopy; Inner membrane subcomplex purified from BL21 (DE3) expressing bcs^HisRQA^HA-FLAGB-pCDF-Duet; reconstruction at 21.1 Å
[2] = molecular target: the molecule itself; test: negative-stain electron microscopy; Bcs macrocomplex purified from E. coli 1094 bcsA^HA-FLAG 2K7, GraFix cross-linked in the gradient; non-symmetrized reconstruction at 16.7 Å

Protein | stoichiometry N [1] | stoichiometry N [2]
BcsB (recombinant, BL21) (natural protein, E. coli 1094, UniProt P37652 26-779, looked up, BcsB, amplified from genomic DNA of E. coli 1094 bcsA^HA-FLAG; source: E. coli BL21 (DE3), bcs^HisRQA^HA-FLAGB-pCDF-Duet, co-expressed, detergent-solubilised membranes; purified complex for EM) TPATQPLINAEPAVAAQTEQNPQVGQVMPGVQGADAPVVAQNGPSRDVKLTFAQIAPPPGSMVLRGINPNGSIEFGMRSDEVVTKAMLNLEYTPSPSLLPVQSQLKVYLNDELMGVLPVTKEQLGKKTLAQMPINPLFISDFNRVRLEFVGHYQDVCEKPASTTLWLDVGRSSGLDLTYQTLNVKNDLSHFPVPFFDPSDNRTNTLPMVFAGAPDVGLQQASAIVASWFGSRSGWRGQNFPVLYNQLPDRNAIVFATNDKRPDFLRDHPAVKAPVIEMINHPQNPYVKLLVVFGRDDKDLLQAAKGIAQGNILFRGESVVVNEVKPLLPRKPYDAPNWVRTDRPVTFGELKTYEEQLQSSGLEPAAINVSLNLPPDLYLMRSTGIDMDINYRYTMPPVKDSSRMDISLNNQFLQSFNLSSKQEANRLLLRIPVLQGLLDGKTDVSIPALKLGATNQLRFDFEYMNPMPGGSVDNCITFQPVQNHVVIGDDSTIDFSKYYHFIPMPDLRAFANAGFPFSRMADLSQTITVMPKAPNEAQMETLLNTVGFIGAQTGFPAINLTVTDDGSTIQGKDADIMIIGGIPDKLKDDKQIDLLVQATESWVKTPMRQTPFPGIVPDESDRAAETRSTLTSSGAMAAVIGFQSPYNDQRSVIALLADSPRGYEMLNDAVNDSGKRATMFGSVAVIRESGINSLRVGDVYYVGHLPWFERVWYALANHPILLAVLAAISVILLAWVLWRLLRIISRRRLNPDNE | 6 | 
BcsB (natural protein, E. coli 1094, UniProt P37652 26-779, looked up, BcsB, E. coli strain 1094, untagged; source: E. coli 1094 bcsA^HA-FLAG 2K7 strain (bcs operons overexpressed from the chromosome), solubilised membranes; purified complex for EM) TPATQPLINAEPAVAAQTEQNPQVGQVMPGVQGADAPVVAQNGPSRDVKLTFAQIAPPPGSMVLRGINPNGSIEFGMRSDEVVTKAMLNLEYTPSPSLLPVQSQLKVYLNDELMGVLPVTKEQLGKKTLAQMPINPLFISDFNRVRLEFVGHYQDVCEKPASTTLWLDVGRSSGLDLTYQTLNVKNDLSHFPVPFFDPSDNRTNTLPMVFAGAPDVGLQQASAIVASWFGSRSGWRGQNFPVLYNQLPDRNAIVFATNDKRPDFLRDHPAVKAPVIEMINHPQNPYVKLLVVFGRDDKDLLQAAKGIAQGNILFRGESVVVNEVKPLLPRKPYDAPNWVRTDRPVTFGELKTYEEQLQSSGLEPAAINVSLNLPPDLYLMRSTGIDMDINYRYTMPPVKDSSRMDISLNNQFLQSFNLSSKQEANRLLLRIPVLQGLLDGKTDVSIPALKLGATNQLRFDFEYMNPMPGGSVDNCITFQPVQNHVVIGDDSTIDFSKYYHFIPMPDLRAFANAGFPFSRMADLSQTITVMPKAPNEAQMETLLNTVGFIGAQTGFPAINLTVTDDGSTIQGKDADIMIIGGIPDKLKDDKQIDLLVQATESWVKTPMRQTPFPGIVPDESDRAAETRSTLTSSGAMAAVIGFQSPYNDQRSVIALLADSPRGYEMLNDAVNDSGKRATMFGSVAVIRESGINSLRVGDVYYVGHLPWFERVWYALANHPILLAVLAAISVILLAWVLWRLLRIISRRRLNPDNE |  | 6
